The values below come from the DeepSol protein solubility set.

The data set in a line: soluble on expression in E. coli; label from the status in PepcDB or PDB records.
As to “MGCAEEKKTDVRWATFNIRYDNPQDSLNNWQYRKDRVCQFIKDHELDIVGMQEVLHNQFQDLRAGLPEYDGIGVGRDDGKTAGEYAPLFYRKDKYEVLDSNTFWLAENPDSVGMMGWDAVCVRIATWAKFKDKATGKIFMAVNTHFDHVGEEARRQSALLIIRKIKEIVGERPAVVTGDFNVTDASDAYETITTNEFVMKDAYKTAARVTGVDYTFHDFARIPAEDCEKIDFIFVTPQVLVKSCEIPAEVPEALLSDHNPQLADLELEHHHHHH”, the “soluble on expression in E. coli” value is listed as “not soluble”. Under “GHMTKLNQESTAPKVLFTGVVDARGERAVLALGGSLAGSAAEASHLVTDRIRRTVKFLCALGRGIPILSLDWLHQSRKAGFFLPPDEYVVTDPEQEKNFGFSLQDALSRARERRLLEGYEIYVTPGVQPPPPQMGEIISCCGGTYLPSMPRSYKPQRVVITCPQDFPHCSIPLRVGLPLLSPEFLLTGVLKQEAKPEAFVLSPLEMSST” stands “soluble”; under “MSLKDGKLGLPIPEAVKIIPELNNYVINGKLDFSNRQARILYNKAIAKALFGLDIEYHPKGLVTTPISRYIFLKTFLRGGEVALEIGTGHTAMMALMAEKFFNCKVTATEVDEEFFEYARRNIERNNSNVRLVKSNGGIIKGVVEGTFDVIFSAPPYYDKPLGRVLTEREAIGGGKYGEEFSVKLLEEAFDHLNPGGKVALYLPDKEKLLNVIKERGIKLGYSVKDIKFKVGTRWRHSLIFFKGISEGHHHHHH”, “soluble”. On to “MSLNLVSLRVITDDVARLVGFYERATGLRATWATEDFAELRTPSGTLAIGSTRTVPLFAPGSARPADNRSVIVEFLVDDVDAVHRNLTGFVDEFVREPTTMPWGNRALLFRDPDGNLVNFFTPVTEGHHHHHH”, for which the “soluble on expression in E. coli” value is “not soluble”. Turning to “MGSDKIHHHHHHMRRADRLFQIVQILRHRRLTTAKQLAERLEVSSRTIYRDIQDLCLSGIPIEGEAGVGYLLRQEVNVPPLMFNEQELEAIQVGMRMVQAQGGHELASAAKQAMIKVEAVLPERLKAYQSLMFAPDFYSEGQLFSFLDLLRRTSREREYILLSYQDGKQSSSERQVRPLALYYWQGVWTLLAWCELRGDFRNFRVDRIVGVLPLGSHFQHTPGQEMPDYIAMMQAQYGEC”, the “soluble on expression in E. coli” value is on record as “not soluble”. For “MGSDKIHHHHHHMSTNLDQLTDWLKEHKITEVECMVSDLTGITRGKISPTNKFIAEKGMRLPESVLLQTVTGDYVEDDIYYELLDPADIDMICRPDQNAVYLVPWAVEPTAQVIHDTYDKQGNPIELSPRNVLKKVLKLYADQGWQPIVAPEMEFYLTKRSDDPDYPLQPPIGRSGRPETGRQSFSIEAANEFDPLFEDVYDWCELQNLDLDTLIHEDGTAQMEINFRHGDALSLADQILVFKRTMREAALKHDVAATFMAKPMTGEPGSAMHLHQSIIDIETGKNIFSNEDGTMSELFLNHVGGLQKFIPELLPLFAPNVNSFRRFLPDTSAPVNVEWGEENRTVGLRVPDAVPQNRRVENRLPGADANPYLAIAASLLCGFIGMVEGINPSAPVVGRGYERRNLRLPLTIEDALERMENSKTIEKYLGKKFIIGYVAVKRAEHENFKRVISSWEREFLLFAV” the value was “not soluble”; for “MHLPPKLALTTGVLLVALPLATPAWGQPPTPASPLVQQLNNGNWLDPKEAETLRDELYYQRAIHAYMTMLPALNVIGMRDGSEKVFGAGYNVLPVWKERMDARTMVPTPNADVIYSMSYLDLKKTGPLVVKAPANVIGMFTDFFQRTLTDVGAIGPDRARGGLYLILPPDYDGHVPSSYFVVKSPTYNVFLFFRTIMGQGKGKPDPAPAVKAAETTRVYPLWAEEKDIKPMEFPDGSGKHINMMYPVDQEYWTKLKEFVDYEPVSAIDPELRGVLASIGIVKGQPFKPTAREQELLKRAVETAPKMILAMRQLGREDKRHLYYKDRQWERAWAGATAEWMQDSYLDVNQRATFFQIAYSSAPAMVMRTTGAGSKYPFTARDANGEFLNGSATYKLRMPPDAPAALFWAVTAYNVTDGTMPETDQLMPSTNGYYDIPKQKDGSTEIWFGPQKPADVADAAFIKTIPNRNFLVTLRLYGAEDAFYDQTWKPDDVVKVKLEHHHHHH”, “not soluble”.
